{"source": "patent US20190010498", "about": "“CHEMICALLY MODIFIED AMPA RECEPTOR RNA APTAMERS” (The Research Foundation for the State University of New York, published 2019)", "binders": {"B1": {"name": "FN1040 (ssRNA)", "RNA": "GGGAGAAUUCAACUGCCAUCUAGGCACGCUACUGUGAGUGUUGUGAUGGCGGCUGAACGAUCGAAACGGAACUGUAGUACUACAAGCUUCUGGACUCGGU", "modifications": "2'-F at all A, C and U; G is 2'-OH"}}, "key": {"[1]": {"biological_target": "T1, GluA2Qflip AMPA receptor (homomeric, Q/R site unedited) (UniProt P19491-2 P19491-2:22-883)", "T1 sequence (P19491 other isoform, or with tags, fused parts or gaps)": "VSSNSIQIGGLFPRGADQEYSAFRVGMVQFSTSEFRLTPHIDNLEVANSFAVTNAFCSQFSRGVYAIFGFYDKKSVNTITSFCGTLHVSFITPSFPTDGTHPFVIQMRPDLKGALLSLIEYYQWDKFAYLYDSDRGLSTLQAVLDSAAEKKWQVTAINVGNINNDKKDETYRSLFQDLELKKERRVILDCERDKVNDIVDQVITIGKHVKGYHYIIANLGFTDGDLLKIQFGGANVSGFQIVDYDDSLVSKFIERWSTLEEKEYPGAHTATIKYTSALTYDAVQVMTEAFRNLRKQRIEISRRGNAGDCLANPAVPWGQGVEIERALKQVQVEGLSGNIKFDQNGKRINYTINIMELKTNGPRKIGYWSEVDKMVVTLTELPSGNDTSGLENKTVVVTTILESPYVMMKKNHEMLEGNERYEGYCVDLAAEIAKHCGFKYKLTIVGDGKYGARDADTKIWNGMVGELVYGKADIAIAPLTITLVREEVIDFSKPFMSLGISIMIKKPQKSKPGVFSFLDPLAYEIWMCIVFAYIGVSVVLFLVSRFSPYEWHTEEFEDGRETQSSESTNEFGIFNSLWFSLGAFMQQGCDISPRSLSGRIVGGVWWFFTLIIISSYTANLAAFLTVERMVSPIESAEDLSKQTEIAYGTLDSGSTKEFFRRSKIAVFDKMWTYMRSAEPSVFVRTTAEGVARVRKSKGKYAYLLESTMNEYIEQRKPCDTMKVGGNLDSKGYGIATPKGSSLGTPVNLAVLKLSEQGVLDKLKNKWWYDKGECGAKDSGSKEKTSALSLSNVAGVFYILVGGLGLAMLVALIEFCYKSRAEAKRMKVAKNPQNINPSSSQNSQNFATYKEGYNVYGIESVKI", "test": "inhibition; whole-cell current recording, closed-channel (0.1 mM glutamate), -60 mV, 22 C", "conditions": "tags: transiently expressed in HEK-293S cells; chain copies: 4 inferred", "from_the_text": "Functional Characterization of FN1040 by Whole-Cell Recording. Using whole-cell current recording, we first tested each of the six putative RNA aptamers against GluA2Qflip, the SELEX target. […] To verify this, we tested the aptamer at increasing concentrations against the GluA2Qflip channel expressed in HEK-293 cells (FIG. 1b). On the closed-channel conformation, we observed a linear relationship between the A/A(I) value and the aptamer concentration (FIG. 1b). Using eq 1 (see Data Analysis of Whole-Cell Current Amplitude), we estimated that the inhibition constant, K, for the closed-channel form of GluA2Qflip was 2.3±0.7 μM (FIG. 1b).\nWhole-Cell Current Recording. […] For recording of the NMDA channels, the intracellular solution contained (in mM) 140 CsCl, 1 MgCl₂, 0.1 EGTA, and 10 HEPES (pH 7.2 adjusted by Mg(OH)₂) and the extracellular solution contained 2 μM of glycine and (in mM) 135 NaCl, 5.4 KCl, 1.8 CaCl₂, 10 glucose and 5 HEPES (pH 7.2 adjusted by NaOH).¹⁰ The glutamate-induced whole-cell current was recorded using an Axopatch-200B amplifier at a cutoff frequency of 2-20 kHz by a built-in, eight-pole Bessel filter and digitized at 5-50 kHz sampling frequency using a Digidata 1322A from Axon Instruments (Molecular Devices, Sunnyvale, Calif.). […]"}, "[2]": {"biological_target": "T1, GluA2Qflip AMPA receptor (homomeric, …)", "test": "competition; homologous competition with 32P-FN1040, nylon filter; 150 mM NaCl, 3 mM KCl, 1 mM CaCl2, 1 mM MgCl2, 10 mM HEPES pH 7.4; 10 ng/ul tRNA; NBQX displaces about 50%, glutamate about 30%, BDZ-f/BDZ-g none", "conditions": "tags: transiently expressed in HEK-293S cells; chain copies: 4 inferred", "from_the_text": "Binding Affinity of FN1040 on GluA2Qflip. The binding affinity, Kd, of FN1040 for GluA2Qflip was estimated from a homologous competitive binding experiment. In this experiment, intact GluA2Qflip receptors embedded in HEK-293 cell membrane fragments were mixed with ³²P-labeled or hot FN1040 (see RNA 5′-end Labeled with ³²P.). The unlabeled FN1040 (or cold FN1040) was used to compete with the hot FN1040 for the binding to GluA2Qflip receptors. As shown, the normalized radioactivity as a function of the cold FN1040 was determined (FIG. 1c).\nHomologous Competitive Binding Assay. FN1040 was transcribed in a transcription reaction mixture with additional 0.4 μM of ³²P-α-ATP (800 Ci/mmol). The ³²P-FN1040 product was separated by 8M urea PAGE and recovered by electroelution method (Elutrap, GE Health). Before mixing with the cell membrane fragments, the RNA was run through a refolding procedure, i.e. 95° C./3′→50° C./30′→room temperature/30′. The binding mixture contained 0.6 nM of GluA2Qflip receptor, 10 ng/μl of yeast tRNA, 10 nM of ³²P-FN1040, and 0 to 1.5 μM of unlabeled FN1040 in the extracelluar buffer. […] The radioactivity remaining on the filter was counted in a scintillation counter (Beckman LS6500). […] Assuming a one-site binding model, we determined the Kd of the aptamer bound to the receptor by fitting the binding data to eq 2⁵² below, […]"}}}
{"binder": "B1", "values": [{"measurement": "Ki", "setting": "[1]", "value": 2.3, "unit": "µM"}, {"measurement": "Kd", "setting": "[2]", "value": 0.02, "unit": "µM"}]}
